Source: patent publication US20240376205A1 (Hoffmann-La Roche, published 2024)

What was measured:
[1] = target: T1, OneArmed-huPD-L1_ECD_Fc_LALAPG (P1AF6937) (human, UniProt Q9NZQ7 18-238); assay: SPR, Dutaflip Fab fragment without IFN-α2 fusion, analyte P1AF6937
T1 construct: range 18-238; also called huPD-L1-Fc; huPD-L1(ECD)-huFc

[2] = target: T2, OneArmed-cyPD-L1_ECD_Fc_LALAPG_avi_his (P1AF6938) (cynomolgus); assay: SPR, Fab fragment, as in Example 2 a)
T2 construct: also called cynomolgus PD-L1-Fc; cynoPD-L1 (ECD)-huFc

[3] = target: T1, OneArmed-huPD-L1_ECD_Fc_LALAPG …; assay: SPR, Fab fragment, as in Example 2 a)

Row | Kd [1] [nM] | Kd [2] [nM] | koff [2] [s⁻¹] | kon [2] [M⁻¹ s⁻¹] | Kd [3] [nM] | koff [3] [s⁻¹] | kon [3] [M⁻¹ s⁻¹] | Binder
1 | 37 | – | – | – | – | – | – | Dutaflip Fab fragment of P1AH1111 (DutaFab E06P07) (Fab, V domains shown, Fab fragment without IFN-α2 fusion, expressed in E. coli) VH: ARQLVESGGGLVQPGGSLRLSCAASGFHFEEQAMSWVRQAPGKGLEWVGSISPKGGSKSLNRNFNGRFTISRDNSKNTLYLQMNSLRAEDTAVYYCAKDIGFMDGWGQGTLVTVSS VL: YQMTQSPSSLSASVGDRVTITCHGHVFISNYLAWYQQKPGKAPKLLIYDGEWRDFGVPSRFSGSGSDDSFTLTISSLQPEDFATYYCQQYSNWPHTFGQGTKVEIK
2 | 6 | – | – | – | – | – | – | Dutaflip Fab fragment of P1AH1108 (Fab, V domains shown, Dutaflip Fab fragment without IFN-α2 fusion, expressed in E. coli) VH: MSQLVESGGGLVQPGGSLRLSCAANNDIEFNAMSWVRQAPGKGLEWVGSISPKGGSKSIHRKFQGRFTISRDNSKNTLYLQMNSLRAEDTAVYYCARDLGFMDIWGQGTLVTVSS VL: KTQMTQSPSSLSASVGDRVTITCDGTYGISNELAWYQQKPGKAPKLLIYDGEYHDFDVPSRFSGSGSGSDFTLTISSLQPEDFATYYCQQYGNWPHTFGQGTKVEIK
3 | – | 0.9 | 0.00015 | 160000 | 0.6 | 0.00012 | 200000 | anti-huPD-L1 M14 Fab (P1AI3438) (Fab, V domains shown, Tested as Fab fragment) VH: MTQLVESGGGLVQPGGSLRLSCAADHTTEYNAMSWVRQAPGKGLEWVSAISGSGGSTYYADSVKGRFTISRDNSKNTLYLQMNSLRAEDTAVYYCARDLGFMDVWGQGTLVTVSS VL: DIQMTQSPSSLSASVGDRVTITCRASQSISSYLNWYQQKPGKAPKLLIYDASYHEFGVPSRFSGSGSGTDFTLTISSLQPEDFATYYCQQSYSTPWTFGQGTKVEIK
